Experimental data published in patent publication US20240076406A1, “SINGLE DOMAIN ANTIBODIES TARGETING CA-IX AS WELL AS COMPOSITIONS COMPRISING SAME” (National Research Council of Canada, priority 2021, published 2024).

How the values were obtained:
[1] = biological target: hCA-IX expressed on cells (SKRC52, SKRC59, 67NR^hCA-IX) (human) (UniProt Q16790); assay: Plate-based cell binding assay, one site specific binding fit; cell line not given
[2] = biological target: hCA-IX expressed on cells (SKRC52, SKRC59, 67NR^hCA-IX) (human) (UniProt Q16790); assay: plate-based cell binding assay, mean fluorescent intensity per cell area, SKRC52 (hCA-IX high) cells

Which results are given for cG250 full sized antibody (FSA)?
Bmax (mean fluorescent intensity per cell area) [1]: 575; Kd [1]: 1.29 nM; EC50 (read off the curve) [2]: 1 nM
